FireProtDB (doi:10.1021/bi00432a026)

Conditions: Aspergillus oryzae (strain ATCC 42149 / RIB 40), DSC, reversible: yes, whole UniProt chain shown; for denaturant m value / denaturant midpoint (higher = more stable) / unfolding free energy: Urea; for Tm / heat capacity change of unfolding / unfolding enthalpy (calorimetric): Thermal
[1] = pH 2.8, 27.75 °C, glycine 30 mM

B1: Guanyl-specific ribonuclease T1 wild type, P00651 (protein)
chain: MMYSKLLTLTTLLLPTALALPSLVERACDYTCGSNCYSSSDVSTAQAAGYQLHEDGETVGSNSYPHKYNNYEGFDFSVSSPYYEWPILSSGDVYSGGSPGADRVVFNENNQLAGVITHTGASGNNFVECT
pH 2.8, 17.1 °C, glycine 30 mM
  denaturant m value: 2.44 kcal/mol/M
  denaturant midpoint (higher = more stable): 2.25 M
  unfolding free energy: 5.41 kcal/mol
pH 2.8, 21.1 °C, glycine 30 mM
  denaturant m value: 2.43 kcal/mol/M
  denaturant midpoint (higher = more stable): 2.02 M
  unfolding free energy: 4.85 kcal/mol
pH 2.8, 24.9 °C, glycine 30 mM
  denaturant m value: 2.33 kcal/mol/M
  denaturant midpoint (higher = more stable): 1.8 M
  unfolding free energy: 4.33 kcal/mol
[1]
  denaturant m value: 2.45 kcal/mol/M
  denaturant midpoint (higher = more stable): 1.44 M
  unfolding free energy: 3.48 kcal/mol
pH 2.8, glycine 30 mM
  Tm: 42.6 °C
  heat capacity change of unfolding: 2.2 kcal/mol/K
  unfolding enthalpy (calorimetric): 95 kcal/mol
pH 5.95, 19.05 °C, MES 30 mM
  denaturant m value: 1.19 kcal/mol/M
  denaturant midpoint (higher = more stable): 6.64 M
  unfolding free energy: 7.94 kcal/mol
pH 5.95, 22 °C, MES 30 mM
  denaturant m value: 1.19 kcal/mol/M
  denaturant midpoint (higher = more stable): 6.32 M
  unfolding free energy: 7.55 kcal/mol
pH 5.95, 29.1 °C, MES 30 mM
  denaturant m value: 1.18 kcal/mol/M
  denaturant midpoint (higher = more stable): 5.45 M
  unfolding free energy: 6.51 kcal/mol
pH 5.95, MES 30 mM
  Tm: 52.8 °C
  heat capacity change of unfolding: 1.49 kcal/mol/K
  unfolding enthalpy (calorimetric): 104 kcal/mol
pH 7, 19.2 °C, MOPS 30 mM
  denaturant m value: 1.21 kcal/mol/M
  denaturant midpoint (higher = more stable): 5.26 M
  unfolding free energy: 6.29 kcal/mol
pH 7, 21.1 °C, MOPS 30 mM
  denaturant m value: 1.1 kcal/mol/M
  denaturant midpoint (higher = more stable): 4.98 M
  unfolding free energy: 5.95 kcal/mol
pH 7, 23.05 °C, MOPS 30 mM
  denaturant m value: 1.2 kcal/mol/M
  denaturant midpoint (higher = more stable): 4.86 M
  unfolding free energy: 5.81 kcal/mol
pH 7, 25 °C, MOPS 30 mM
  denaturant m value: 1.2 kcal/mol/M
  denaturant midpoint (higher = more stable): 4.58 M
  unfolding free energy: 5.47 kcal/mol
pH 7, 27 °C, MOPS 30 mM
  denaturant m value: 1.2 kcal/mol/M
  denaturant midpoint (higher = more stable): 4.14 M
  unfolding free energy: 4.95 kcal/mol
pH 7, 29 °C, MOPS 30 mM
  denaturant m value: 1.27 kcal/mol/M
  denaturant midpoint (higher = more stable): 3.93 M
  unfolding free energy: 4.7 kcal/mol
pH 7, MOPS 30 mM
  Tm: 48.2 °C
  heat capacity change of unfolding: 1.72 kcal/mol/K
  unfolding enthalpy (calorimetric): 95.2 kcal/mol
pH 7.9, 19.05 °C, HEPPSO 30 mM
  denaturant m value: 1.11 kcal/mol/M
  denaturant midpoint (higher = more stable): 4.19 M
  unfolding free energy: 5.01 kcal/mol
pH 7.9, 22 °C, HEPPSO 30 mM
  denaturant m value: 1.25 kcal/mol/M
  denaturant midpoint (higher = more stable): 3.91 M
  unfolding free energy: 4.67 kcal/mol
pH 7.9, 25 °C, HEPPSO 30 mM
  denaturant m value: 1.28 kcal/mol/M
  denaturant midpoint (higher = more stable): 3.44 M
  unfolding free energy: 4.11 kcal/mol
pH 7.9, 28.95 °C, HEPPSO 30 mM
  denaturant m value: 1.19 kcal/mol/M
  denaturant midpoint (higher = more stable): 2.95 M
  unfolding free energy: 3.52 kcal/mol
pH 7.9, HEPPSO 30 mM
  Tm: 43.3 °C
  heat capacity change of unfolding: 1.65 kcal/mol/K
  unfolding enthalpy (calorimetric): 87.1 kcal/mol
